Patent publication US20150051136A1

Tests used:
S100B [1] = test: BIAcore SPR, sRAGE amine-coupled to CM5 chip, S100B as analyte, steady state model
[2] = biological target: HMGB1 (high mobility group box 1); test: HMGB1 ELISA (as in Liu et al. 2009)
[3] = biological target: HMGB1 (high mobility group box 1); test: BIAcore SPR, sRAGE amine-coupled to CM5 chip, HMGB1 as analyte, 1:1 Langmuir model
S100B [4] = test: cell-based or functional assay
[5] = biological target: HMGB1 (high mobility group box 1); test: cell-based or functional assay

Sequence of sRAGE^sf9 (human T7-sRAGE produced in baculovirus-infected sf9 insect cells) (Q15109 23-340, tags or fused parts left off): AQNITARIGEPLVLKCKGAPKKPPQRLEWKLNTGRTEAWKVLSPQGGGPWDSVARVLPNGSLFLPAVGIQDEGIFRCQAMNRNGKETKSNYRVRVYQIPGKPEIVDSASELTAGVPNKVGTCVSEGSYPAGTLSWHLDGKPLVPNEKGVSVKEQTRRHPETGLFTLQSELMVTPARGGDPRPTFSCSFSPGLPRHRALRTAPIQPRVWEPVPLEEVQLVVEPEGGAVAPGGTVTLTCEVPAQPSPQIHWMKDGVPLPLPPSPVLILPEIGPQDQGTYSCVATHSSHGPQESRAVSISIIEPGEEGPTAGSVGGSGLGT
Sequence of sRAGE^CHO (human T7-Gly-Ser-RAGE (23-340) polypeptide produced in CHO-CD14 cells) (Q15109 other isoform, or with tags, fused parts or gaps): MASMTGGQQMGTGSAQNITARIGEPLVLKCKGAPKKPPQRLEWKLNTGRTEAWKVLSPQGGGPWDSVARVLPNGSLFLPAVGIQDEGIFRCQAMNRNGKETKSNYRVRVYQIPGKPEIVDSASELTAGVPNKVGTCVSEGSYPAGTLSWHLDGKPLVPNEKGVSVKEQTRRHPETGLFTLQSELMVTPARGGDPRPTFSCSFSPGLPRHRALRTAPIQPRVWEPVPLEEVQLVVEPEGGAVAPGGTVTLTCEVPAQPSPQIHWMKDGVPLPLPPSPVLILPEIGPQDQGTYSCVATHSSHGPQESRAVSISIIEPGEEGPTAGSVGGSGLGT
Sequence of sRAGE^CHO(desialylated) (Q15109 other isoform, or with tags, fused parts or gaps): as above
Sequence of S100B (D3DSN6 whole entry): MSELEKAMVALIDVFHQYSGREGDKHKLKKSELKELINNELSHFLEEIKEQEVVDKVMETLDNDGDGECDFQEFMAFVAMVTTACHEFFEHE
Sequence of HMGB1 (high mobility group box 1) (P09429 whole entry): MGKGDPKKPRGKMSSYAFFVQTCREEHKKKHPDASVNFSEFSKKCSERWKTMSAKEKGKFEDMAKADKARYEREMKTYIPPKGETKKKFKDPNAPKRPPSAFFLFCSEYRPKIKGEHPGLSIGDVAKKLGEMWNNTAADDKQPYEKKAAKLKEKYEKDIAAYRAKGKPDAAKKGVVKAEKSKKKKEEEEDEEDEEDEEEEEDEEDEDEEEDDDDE

Substance	Kd (S100B [1]) [nM]	Kd [2] [nM]	Kd [3] [nM]	inhibition of s100B-induced NF-κB activity (luciferase reporter, HEK293-RAGE cells; 100 nM ligand, 100 nM sRAGE) (S100B [4]) [%]	inhibition of HMGB1-induced NF-κB activity (luciferase reporter, HEK293-RAGE cells; 100 nM ligand, 100 nM sRAGE) [5] [%]	fold of the dissociation constant (Kd) against wild-type sRAGE [2] [fold]
sRAGE^CHO (human T7-Gly-Ser-RAGE (23-340) polypeptide produced in CHO-CD14 cells) (from UniProt Q15109 23-340) (receptor)	90.5	49.5	13.3	40.2	58.6	
sRAGE^CHO(N25T/N81T) (from UniProt Q15109 26-340) (receptor)		521			0.3	10
sRAGE^CHO(desialylated) (from UniProt Q15109 23-340) (receptor)	25.3			18	25.8	
sRAGE^sf9 (human T7-sRAGE produced in baculovirus-infected sf9 insect cells) (from UniProt Q15109 23-340) (receptor)	32			20.4	19.7	
